Results on one protein are retold here after patent publication US7252958 (Novartis, dated 2007).

This data set deals with the molecule itself. Briefly: X-ray crystal structure of CD81-LEL.

B1: CD81-LEL (large extracellular loop of human CD81, amino acids 113-201) with C-terminal His-tag (receptor)
chain: FVNKDQIAKDVKQFYDQALQQAVVDDDANNAKAVVKTFHETLDCCGSSTLTALTTSVLKNNLCPSGSNIISNLFKEDCHQKIDDLFSGKHHHHHH
notes: Made in E. coli as a fusion with S. aureus Protein A and released by protease (thrombin) cleavage; it forms a homodimer in the crystal, with two chains per asymmetric unit; also called LEL-(His)6; hCD81-LEL
Turning to B1, the binding result is “binds”.
